Earlier results in paper PMC4067574.
Read-outs that look alike come from different tables or passages of the source.

Columns and labels:
C3b C3b (Homo sapiens) [1] = target: C3b C3b (Homo sapiens) (UniProt P01024)
C3b C3b (Homo sapiens) [2] = target: C3b C3b (Homo sapiens) (UniProt P01024); remark: listed apart in the source

Chain of C3b C3b (Homo sapiens) (P01024 566-670): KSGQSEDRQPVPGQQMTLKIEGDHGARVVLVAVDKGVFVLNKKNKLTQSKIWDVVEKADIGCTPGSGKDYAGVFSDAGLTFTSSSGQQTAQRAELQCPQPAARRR
Chain of complement factor H rFH1-4 N-terminal modules 1-4 (P08603 19-264): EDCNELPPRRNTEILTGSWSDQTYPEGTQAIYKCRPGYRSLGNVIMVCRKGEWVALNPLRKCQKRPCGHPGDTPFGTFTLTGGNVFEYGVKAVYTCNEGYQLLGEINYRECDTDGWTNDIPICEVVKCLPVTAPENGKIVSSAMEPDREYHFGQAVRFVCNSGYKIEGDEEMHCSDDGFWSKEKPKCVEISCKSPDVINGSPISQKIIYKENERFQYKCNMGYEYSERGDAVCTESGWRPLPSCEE
Chain of complement factor H C-terminal fragment C-terminal two modules (P08603 1103-1231): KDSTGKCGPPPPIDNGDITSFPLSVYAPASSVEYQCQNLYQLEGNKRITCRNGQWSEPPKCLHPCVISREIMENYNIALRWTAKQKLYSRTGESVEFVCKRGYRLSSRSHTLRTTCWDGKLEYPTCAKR

Row | Kd (C3b C3b (Homo sapiens) [1]) [µM] | Kd (C3b C3b (Homo sapiens) [2]) [µM] | Substance
1 | 4 | – | complement factor H C-terminal fragment C-terminal two modules (from UniProt P08603)
2 | – | 10 | complement factor H rFH1-4 N-terminal modules 1-4 (from UniProt P08603)
